From patent US9809627B2, “Cyclized transthyretin peptide and methods of use therefor” (Wisconsin Alumni Research Foundation, priority 2014, dated 2017)
Where no end group is shown, it is not given here. [ ]: non-standard residue; d: D form.

Columns and labels:
Aβ (1-40) [1] = molecular target: T1, Aβ (1-40) (Homo sapiens, UniProt P05067); assay: Photoinduced cross-linking (PICUP) of Aβ and peptides; assay type: binding
T1 construct: Aβ (1-40) was purchased from Anaspec, Inc. (Fremont, Calif.) as lyophilized powder; purchased Anaspec, Inc. (Fremont, Calif.)
Procedure: (§1) Aβ (1-40) was purchased from Anaspec, Inc. (Fremont, Calif.) as lyophilized powder. For dynamic light scattering, ThT fluorescence assay, TEM, NTA measurement and filtration/sedimentation assay, Aβ was dissolved in 50% ACN, re-lyophilized, and reconstituted in 8M urea at 12 mg/mL. Aβ stock was then aliquoted, snap-frozen in ethanol with dry ice, and stored at −80° C. For PICUP and proteolytic fragmentation analysis, lyophilized Aβ was dissolved in prechilled hexafluoroisopropanol (HFIP, Acros Organics, Geel, Belgium), aliquoted, dried and stored at −20° C. as previously described (Cho et al., 2014). Aβ sample was prepared right before use by dissolving dried peptides in 50 mM NaOH and diluting into phosphate-buffered saline (PBSA) (10 mM Na2HPO4/NaH2PO4, 150 mM NaCL and 0.02% NaN3 (pH 7.4)) to 30 μM as previously described (Cho et al., 2014).
Aβ prepared with HFIP/NaOH treatment at 30 μM as described was mixed with peptides to a final concentration of 24 μM Aβ and 2.4 μM peptides. Aβ stock was used immediately (freshly prepared) or after incubation for 24 hr at 37° C. (1 day pre-aggregated). Samples of Aβ with and without peptides were incubated for 1 hr at 37° C. and cross-linked by photo-induced cross-linking method as previously described (Cho et al., 2014). Cross-linked samples were then separated on a 10-20% Tris-Tricine gradient gel (Iinvotrogen, Carlsbad, Calif.), transferred onto a 0.2 μm poly(vinylidene difluoride) (PVDF) membrane and detected by monoclonal mouse anti-Aβ antibody 4G8 (Covance, Princeton, N.J.) as previously described (Cho et al., 2014).

Aβ = molecular target: T2, Aβ (Homo sapiens, UniProt P05067); assay: Enzyme-linked immunoassay of Aβ binding to immobilized CG3-biotin in presence of serum proteins; settings: Aβ 1, 3 or 5 μg/mL in PBS with 10% or 30% FBS
T2 construct: Amyloid-beta (Aβ or Abeta) denotes peptides of 36-43 amino acids
Text: Evidence of interaction between Aβ and peptide investigated by enzyme-linked immunoassay. CG3 was synthesized with an appending polyethylene glycol (PEG) linker attached to biotin. This was achieved by replacing Val at the 3rd position with Glu and on-column addition of PEG and biotin to the Glu side chain. […] After further washing, Aβ was detected using monoclonal anti-Aβ antibody and Superclonal-HRP. […] Open symbols/dashed lines are negative control (immobilized PEG-biotin linker).
Briefly, CG3 was synthesized with an appended flexible PEG linker and biotin. […] Aβ was prepared at 1, 3, or 5 μg/mL in PBS, or in PBS containing 10 (vol/vol) % or 30 (vol/vol) % fetal bovine serum (FBS, charcoal-treated). […] Aβ solutions were added to the CG3-coated wells and then incubated to allow binding. After washing, Aβ was detected by anti-Aβ antibody (6E10 or 4G8) and Superclonal-HRP.

Aβ (1-40) [2] = molecular target: T1, Aβ (1-40); assay: Dynamic light scattering of Aβ aggregate growth; assay type: biochemical; settings: 140 μM Aβ
Procedure: as §1
Aβ stock in 8M urea prepared as stated above was thawed and sonicated for 2 min before being diluted into PBSA. Aβ alone (140 μM) or mixed with peptides (14 μM) was filtered through […] filter directly into a light scattering cuvette and placed into a bath of the index-matching solvent decahydronaphthalene with temperature controlled to 37° C. Light scattering data were collected using a Brookhaven BI-200SM system (Brookhaven Instruments Corp., Holtsville, N.Y.) and an Innova 90C-5 argon laser (Coherent, Santa Clara, Calif.) operating at 488 nm and 150 mW. The average scattering intensity at 90° was measured over 10 hr and data were normalized to the total mass concentration. The z-averaged hydrodynamic diameter was determined from the autocorrelation function using the method of cummulants.

Aβ (1-40) [3] = molecular target: T1, Aβ (1-40); assay: Thioflavin T (ThT) fluorescence assay of Aβ aggregation; assay type: biochemical; settings: 28 μM Aβ, 2.8 μM peptide
Procedure: as §1
ThT stock solutions were prepared in PBSA and filtered through 0.22 μm filter. The concentration of ThT was measured using an extinction coefficient of 26,620 M^−1 cm^−1 at 416 nm and the stock solution was diluted to 10 μM in PBSA prior to the measurement. Aβ alone (28 μM) and with peptides (2.8 μM) or mTTR (2.8 μM) were prepared in PBSA and incubated for 48 hr at 37° C. After 1, 5, 24 and 48 hr of incubation, 10 μL of each sample was mixed with 130 μL of 10 μM ThT and analyzed. ThT fluorescence emission was measured using a QuantaMaster spectrofluometer (PTI, Birmingham, N.J.), with excitation at 440 nm and emission spectra recorded from 460 to 500 nm. Three serial spectra were averaged for each sample and the background signal of ThT in PBSA was subtracted from the averaged data. Fluorescence intensity at a wavelength of 480 nm was compared.

Aβ (1-40) [4] = molecular target: T1, Aβ (1-40); assay: Transmission electron microscopy of Aβ aggregates; assay type: biochemical; settings: 48 h at 37° C., 28 μM Aβ, 2.8 μM peptide
Procedure: as §1
Aβ alone (28 μM) or with peptides (G16 or CG3 at 2.8 μM) were prepared in PBSA and incubated for 48 hr at 37° C. A drop of sample was placed on a pioloform-coated grid and stained with methylamine tungstate stain. Images were taken with a Philips CM120 scanning transmission electron microscope (FEI Corp., Eindhoven, The Netherlands).

[5] = tested on: primary cortical neuronal cells; assay: In vitro cellular toxicity of Aβ (1-42), MTS assay; assay type: cell-based, mice; settings: 10 μM peptide, 10 μM Aβ
Procedure: Aβ toxicity was assessed as described in detail previously (Yang et al., 2013; Cho et al., 2014). Briefly, the primary cortical neuronal cells were cultured from embryonic 15.5 day mice and were maintained in neurobasal media till they are matured. Aβ (1-42) (American Peptide, Sunnyvale, Calif.) at 1 mg/mL in PBS was diluted to 10 μM without or with peptides as previously described (Cho et al., 2014). At 6 days in vitro (DIV), the cells were treated with either Aβ alone or Aβ incubated with different doses of mTTR and peptides. Appropriate vehicle and controls were run along with the treatments. At 8 DIV, the neurons were incubated with MTS reagent (Promega) as per manufacturer protocol for 2-3 hrs and absorbance was measured at 490 nm.

[6] = Peptide self-association by PICUP cross-linking and gel electrophoresis; assay type: physicochemical; settings: PICUP cross-linking, gel electrophoresis
Procedure: Peptides were also cross-linked by PICUP and analyzed for self-association. Twenty microliters of peptides at 36 μM in PBSA was incubated for 1 hr at 37° C. and cross-linked. Cross-linked samples were then heated at 95° C. for 5 min and separated on a 10-20% Tris-Tricine gradient gel. Peptides were visualized by silver staining (SilverStain Kit, Pierce, Rockford, Ill.).

[7] = Peptide self-aggregation by light scattering; assay type: physicochemical; settings: 80 μM, 37° C., after 1 hr of incubation
Procedure: To further probe for self-aggregation, G16, LG3, and CG3 were incubated at 80 μM at 37° C. and analyzed by light scattering.

SKVVT^DPPRYTIAALLSPYSYSQ [CG3] (chain 1 SKVVT[dP]PRYTIAALLSPYSYSQ; chain 2 SKVVT[dP]PRYTIAALLSPYSYSQ; also: head-to-tail to a chain's N/C-terminus) [cyclic 22-mer of TTR residues 104-123 grafted onto DPro-Pro template]
interaction with freshly prepared versus pre-aggregated Aβ (Aβ (1-40) [1]; freshly prepared or 1 day pre-aggregated Aβ): much less interaction with freshly prepared Aβ than with pre-aggregated Aβ | interaction with Aβ (shift in cross-linked Aβ size distribution) (Aβ (1-40) [1]; pre-aggregated Aβ, 10:1 molar excess of Aβ, Western blot 4G8): interact with Aβ | binding of Aβ to immobilized peptide (Aβ): serum proteins do not interfere with Aβ binding | effect on Aβ aggregation (hydrodynamic diameter, total scattered intensity) (Aβ (1-40) [2]; 14 μM peptide): increased the size of aggregates of Aβ | intensity of scattered light of Aβ-peptide mixture (Aβ (1-40) [2]; 14 μM peptide): enhanced the intensity of scattered light similarly | mean hydrodynamic size of Aβ-peptide mixture (Aβ (1-40) [2]; after 5 hr, 10:1 molar excess of Aβ, 37° C.): 1000 nm | ThT fluorescence intensity of Aβ with peptide (Aβ (1-40) [3]; after 5 hr): remained low | ThT fluorescence intensity of Aβ with peptide (Aβ (1-40) [3]; after 24 hr): fluorescence still remained low | morphology of Aβ aggregates by TEM (Aβ (1-40) [4]): strikingly lower density of aggregates | protection against Aβ toxicity [5]: significant protection | self-association by PICUP [6]: a fraction of CG3 forms a SDS-stable dimer | light scattering of peptide alone [7]: scattered light above background | scattering intensity relative to G16 [7]: about 5 times
